4 proteins from doi:10.1101/2020.10.20.346890 (bioRxiv, 2020) can be followed below.

Changes are numbered by the printed parent chain. Where “and” joins values, the source holds several entries; their conditions need not be identical. Equal values may be shown once.

To fix the notation:
B1: HU-B wild type (natural protein)
chain: MNKSQLIDKIAAGADISKAAAGRALDAIIASVTESLKEGDDVALVGFGTFAVKERAARTGRNPQTGKEITIAAAKVPSFRAGKALKDAVN
B2: LoodHU-B (loop-deleted HU-B) (other)
chain: MNKSQLIDKIAAGADISKAAAGRALDAIIASVTESLKEGDDVALVGFGTFASGGGGSGGGGSKVPSFRAGKALKDAVN
B3: LysrHU-B (lysine-replaced HU-B) (other)
chain: B1 chain with K83A, K86A
B4: LoodLysrHU-B (loop-deleted and lysine-replaced HU-B) (other)
chain: B2 chain with K71A, K74A

One data set deals with the molecule itself. Nature of the data set: SEC.
The term stoichiometry N denotes the number of molecules, sites or subunits per partner or assembly. Regarding B1, the “stoichiometry N” value is 2.

As to B2, the “stoichiometry N” value is 2.

A further data set concerns the molecule itself. Nature of the data set: cross-linking.
Turning to B1, the “stoichiometry N” value was 4 and 3 and 6.

As for B3, the “stoichiometry N” value was 2 and 4.

With B2, the “stoichiometry N” value amounted to 4.

For the protein B4, the “stoichiometry N” value was 2 and 4.
